Test results reported in the nanobody polyreactivity screen of Harvey et al. (2022).

Assay: yeast display, Sf9 membrane polyspecificity reagent, FACS + sequencing; frameworks hold sequencing errors
Method in brief: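 Galactose induction of a Saccharomyces cerevisiae BJ5465 synthetic nanobody display library ran 36–48 hours. The cells were then stained for 1 hour at 4 °C with 10% biotinylated, detergent-solubilized Sf9 membrane reagent, pulled down on streptavidin microbeads and FACS-sorted into low and high (top ~1%) gates on expression and reagent-binding fluorescence. Labels for polyreactivity follow the gate of origin.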

Sequence | polyreactivity (PSR sort gate)
QVQLVESGGGLVQAGGSLRLSCAASGSIFVINAMGWYRQAPGKERELVAAISYSGTGTYYADSVKGRFPISRDNAKITVYLQMNSLKPEDTAVYYCAADYYYRYRIYDYWGHGTQVTVSS | low polyreactivity
QVQLVESGGGLVQAGGSLRLSCAASGSIFVIYALGWYRQAPGKERELVARITKSGGTTYYADSVKGRFTISRDNAKNTVYLQMNSLKPDDTAVYYCNVGYGGSSDGGYDYWGQGTQVTVSS | high polyreactivity
QVQLVESGGGLVQAGGSLRLSCAASGSIFVKYAMGWYRQAPGKERELVAAISRRGGSTNYADSVKGRFTISRDNAKNTVYLQMNSLKPEDTAVYYCNAQTVTSYGGDSWGQGTQVTVSS | high polyreactivity
QVQLVESGGGLVQAGGSLRLSCAASGSIFVLNAMGWYRQAPGKERELLAGITYSGGSTYYADSVKGRFTISRDNAKNTVYLQMNSLKPEDTAVYYCAAPVRRYPYPGRFYYWGQGTQVTVSS | low polyreactivity
QVQLVESGGGLVQAGGSLRLSCAASGSIFVLNAMGWYTQAPGKERELVAAINKSGGRTYYADSVKGRFTISRDNAKNTVYLQMNSLKPEDTAVDYCAVDISVTGSSNRYGYWGQGTQVTVSS | high polyreactivity
QVQLVESGGGLVQAGGSLRLSCAASGSIFVLYAMGWYRKAPGKERELVAAISRGVGGTNYADSVKGRFTISRDNAKITVYLQMNSLKPEDTAVYYCAAQTLRWSHYYYWGQGTQVTVSS | high polyreactivity
QVQLVESGGGLVQAGGSLRLSCAASGSIFVLYAMGWYRQAPGKERELVAAISRGVGGTNYADSVKGRFTISRDNAKNTVYLQMNSLKPEDTAVYYCAAQTLRWSHYYYWGQGTQVTVSS | high polyreactivity
QVQLVESGGGLVQAGGSLRLSCAASGSIFVNNAMGWYRQAPGKERELVAAITCSTGSTYYADSVKGRFTISRDNAKNTVYLQMNSLKPEDTAVYYCAATSYTATWRYYYWGQGTQVTVSS | high polyreactivity
QVQLVESGGGLVQAGGSLRLSCAASGSIFVNNAMVWYRQAPGKERELVAAISSRGGSTYYADSVKGRFTISRDNAKNTVYLQMNSLKPEDTAVYYCAAAGYGKVRGDYWGQGTQVTVSS | low polyreactivity
QVQLVESGGGLVQAGGSLRLSCAASGSIFVNYAKGWYRQAPGKERELVAAITRSGGRTYYADSVKGRFTISRDNAKNTVYLQMNSLKPEDTAVYYCNKRRYPYGWGQGTQVNVSS | high polyreactivity
QVQLVESGGGLVQAGGSLRLSCAASGSIFVNYAMGWYRQAPGKERELVAAITLRGGSTFYADSVKGRFTISRDNAKNTVYLQMNSLKPEDTAVYYCAASSLRYRAYKSLFDYWGQGTQVTVSS | low polyreactivity
QVQLVESGGGLVQAGGSLRLSCAASGSIFVPYAMGWYRQAPGKERELVAAISSRGGRTYYADSVKGRFTISRDNPKNTVYLQMNSLKPEDTAVYYCNKTAGSHIPRLEYWGQGTQVTVSS | low polyreactivity
QVQLVESGGGLVQAGGSLRLSCAASGSIFVPYAMGWYRQAPGKERELVAAISSSTASTYYADSVKGRFTISRDNAKNTVYLQMNSLKPEDTAVYYCNAEQWDYGVRVAHYDYWGQGTQVTVSS | low polyreactivity
QVQLVESGGGLVQAGGSLRLSCAASGSIFVQYDMGWYRQAPGKERELVAAITSGSSTNYADSVKGRFTISRDNAKNTVYLQMNSLKPEDTAVYYCAASTPYSYRYDYWGQGTQVTVSS | low polyreactivity
QVQLVESGGGLVQAGGSLRLSCAASGSIFVRNALGWYRQAPGKEREFVAIRFSGATTYYADSVKGRFTISRDNAKNTVYLQMNSLKPEDTAVYYCAAVARTYGRTSYYWGQGTQVTVSS | high polyreactivity
QVQLVESGGGLVQAGGSLRLSCAASGSIFVRNAMGWYRQAPGKERELVAAITYRGGSTYYADSVKGRFTISRDNAKNTVYFQMNSLKPEDTAVYYCFDVNTDVLSRVYRGWGYYYWGQGTQVTVSS | low polyreactivity
QVQLVESGGGLVQAGGSLRLSCAASGSIFVRYAKGWYRQAPGKERELVAAIDIGGGTYYADSVKGRFTISRDNAKNTVYLQMNSLKPEDTAVYYCAADGFTEYIYLPYDYWGQGTQVTVSS | high polyreactivity
QVQLVESGGGLVQAGGSLRLSCAASGSIFVSNAMGWSRQAPGKERELVAAITRSGGSTYYADSVKGRFTISRDNAKNTVYLQMNCLKPEDTAVYYCAAATYRYGYGYWGQGTQVTVSS | high polyreactivity
QVQLVESGGGLVQAGGSLRLSCAASGSIFVSNAMGWYRQAPGKEREFDAGITRRGGRTYYADSVKGRFTISRDNAKNTVYLQMNSLKPEDTPVYYCAAKSTTSRFDYWGQGTQVTVSS | high polyreactivity
QVQLVESGGGLVQAGGSLRLSCAASGSIFVSYAMGWYRQAPGKERELVAAISISDGSTYADSVKGRFTISRDNAKNTVYLQMNSLKPEDTAVYYCATYLVYDYAYVAYDYWGQGTQVTVSS | low polyreactivity
QVQLVESGGGLVQAGGSLRLSCAASGSIFVSYAMGWYRQAPGKERELVAAISSSGTRTYYADSVKGRFTISRDNAKNTVYLQMNSLKPEDTAVYYCAKDSYHTVWGGYWGQGTQVTVSS | high polyreactivity

Sequence | polyreactivity (PSR sort gate)
QVQLVESGGGLVQAGGSLRLSCAASGSIFVSYAMGWYRQAPGKERELVAAITSIGTRTNYADSVKGRFTISRDNAKNTVYLPMNSLKPEDTAVYYCNAPRFWSRHGLRDYWGQGTQVTVSS | high polyreactivity
QVQLVESGGGLVQAGGSLRLSCAASGSIFVSYAMGWYRQAPGKERELVAVISYSGVSTYYADSVKGRFTISRDNAKNTVYLQMNSLKPEDTAVYYCATRQYGTRHILKYNYWGQGTQVTVSS | low polyreactivity
QVQLVESGGGLVQAGGSLRLSCAASGSIFVSYAMGWYRQAPGNDRELVAAISGGGVSTYYADSVKGRFSISRDNAKNTVYLQMNSLKPEDTAVYYCATPYVQTGSGYTGDYWGQGTQVTVSS | high polyreactivity
QVQLVESGGGLVQAGGSLRLSCAASGSIFVSYGMGWYRPAPGKERELVAAISGGGVSTYYADSVKGRFTISRDNAKNTVYLQMNSLIPEDTAVYYCAAEVSFGWGNYGYDYWGQGTQVTVSS | high polyreactivity
QVQLVESGGGLVQAGGSLRLSCAASGSIFVTYAMGWYRQAPGKERELVAAINYSGGSTYYADSVKGRFTISRDNAKNTVYLQMNSLKPEDTAVYYCAADERVDQGWIRMDYWGQGTQVTVSS | low polyreactivity
QVQLVESGGGLVQAGGSLRLSCAASGSIFVTYAMGWYRQAPGKERELVAAITWNGGSTYYADSVKGRFTISRDNAKNTVYLQMNSLKPEDTAVYYCAADSRYRGNYWGQGTQVTVSS | high polyreactivity
QVQLVESGGGLVQAGGSLRLSCAASGSIFVTYAMGWYRQAPGKERELVATITSSGGSTYYADSVKGRFTISRDNAKNTVYLQMNSLKPEDTAVYYCATDFGASVWDYFRRVYYWFGYWGQGTQVTVSS | low polyreactivity
QVQLVESGGGLVQAGGSLRLSCAASGSIFVVNAMGWYRQAPGKERELGASISQSGDNTYYADSVKGRFTISRDNAKNTVYLQMISLKTEDTAVYYCNAYGGYPEVDYWGQGTQVTVSS | low polyreactivity
QVQLVESGGGLVQAGGSLRLSCAASGSIFVVNTLGWYRQAPGKEREFVAPISYNGGRTSYADSVKGRFTISRDNAKNTVYLQMNSLKPEDTEVYYCAAGGSVPRAYHISYFTQYDYWGQGTQVTVSS | low polyreactivity
QVQLVESGGGLVQAGGSLRLSCAASGSIFVWYDMGWYRQAPGKERELVATFSLSGVSTYYADSVKGRFTISRDNAKNTVYLQMNSLKPEDSAVYYCAADFVEQGEDDYWGQGTQVTVSS | low polyreactivity
QVQLVESGGGLVQAGGSLRLSCAASGSIFVWYVMGWYRQAPGKERELVAAITWSAARTYDADSVKGRFTISRDNAKNTVYLQMNSLKPADTAVYYCAADHVSYQPSSRIFDYWGQGTQVTVSS | low polyreactivity
QVQLVESGGGLVQAGGSLRLSCAASGSIFVYNAMGWYRQAPGKEREMVARITYIGTSTYYADSVKGRFTISRDNAKNSVYLQMNSLKPEDTGVYYCNARRRHEGSPPYGYWGQGTQVTVSS | high polyreactivity
QVQLVESGGGLVQAGGSLRLSCAASGSIFVYNDKGWYRQAPGKERELVADISSGGTTDYADSVKGRFTISRDNAKNTVYLQMNSLKPEDTAVYYCAAESYIEYYLKYDYWGQGTQVTVSS | low polyreactivity
QVQLVESGGGLVQAGGSLRLSCAASGSIFVYNDMGWYRQAPGKERELVAGIDWSGDRTYADSVKGRFTSSRDNAKNTVYLHMNSLKPEDTAVYYCNADEWRWDEIIPYAVDYWGQGTQVTVSS | low polyreactivity
QVQLVESGGGLVQAGGSLRLSCAASGSIFVYNPMGSYREPPGKERELVAAISQRGGSTYYADSVKGRFTISRDNANNTVYLQMYSLKPEDTAVYYCAAGPGDSGDDYWGQGTQVTVSS | low polyreactivity
QVQLVESGGGLVQAGGSLRLSCAASGSIFVYYAMGWYRQAPGKERELVAAISSRGGSTYYADSVKGRFTISRDNAKNTVYLQMNSLKPEDTAVYYCAAYTLDGVNGRVLDDYWGQGTQVTVSS | low polyreactivity
QVQLVESGGGLVQAGGSLRLSCAASGSIFVYYTMGWYRQAPGKESELVAAISISGTSTYYADSVKGRFTISRDNAKYTVYLQLNSLKPEDTAVYYCAADTFYGEDYWGQGTQVTVSS | low polyreactivity
QVQLVESGGGLVQAGGSLRLSCAASGSIFVYYTMGWYRQSPGKEREMVAAITYSGGSKYYADSVKGRFTISRDNAKNTVYLQMNRLKPEDTAVYYCNAKSAAHRYVRRHDYWGQGTQVTVSW | low polyreactivity
QVQLVESGGGLVQAGGSLRLSCAASGSIFWAYTMGWYRQAPGKERELVAAISASGGSTYYADSVKGRFTISRDNAKNTFYLQMNSLKPEDTAVYYCNKDYHRPYGGGSKGDYWGQGTQVTVSS | low polyreactivity
QVQLVESGGGLVQAGGSLRLSCAASGSIFWFNAMGWYRQAPGKERELVAAIRRIGGSTYYADSVKGRFTISRDNAKNTVYLQMNSLKPEDTAVYYCAAGVTFRGASYGYWGQGTQVTVSS | high polyreactivity
